Experimental findings from patent publication US20240376186A1 (AARHUS UNIVERSITET, published 2024) are described below.

Assay [1] has as its target T1, native C3 (human, UniProt P01024 23-667; P01024 668-1663).
T1 construct: also called Complement component 3
Put plainly: size exclusion chromatography. How it is done:
(§1) Size exclusion chromatography assay. 200 μg C3b was mixed with a 2-fold molar excess of EWE-hC3Nb1 or left untreated. The mix was diluted to 400 μL in 20 mM HEPES pH 7.5, 150 mM NaCl and applied to a Superdex 200 increase (GE Healthcare) column equilibrated in dilution buffer. SEC assaying binding of EWE-hC3Nb1 to native C3 was performed similarly. Peak fraction were analyzed by SDS PAGE.

The target in assay [2] is T2, C3b (human, UniProt P01024 23-667; P01024 749-1663).
T2 construct: also called human C3b
T2 sequence (P01024 23-667 limits assumed, chain 1 of 2): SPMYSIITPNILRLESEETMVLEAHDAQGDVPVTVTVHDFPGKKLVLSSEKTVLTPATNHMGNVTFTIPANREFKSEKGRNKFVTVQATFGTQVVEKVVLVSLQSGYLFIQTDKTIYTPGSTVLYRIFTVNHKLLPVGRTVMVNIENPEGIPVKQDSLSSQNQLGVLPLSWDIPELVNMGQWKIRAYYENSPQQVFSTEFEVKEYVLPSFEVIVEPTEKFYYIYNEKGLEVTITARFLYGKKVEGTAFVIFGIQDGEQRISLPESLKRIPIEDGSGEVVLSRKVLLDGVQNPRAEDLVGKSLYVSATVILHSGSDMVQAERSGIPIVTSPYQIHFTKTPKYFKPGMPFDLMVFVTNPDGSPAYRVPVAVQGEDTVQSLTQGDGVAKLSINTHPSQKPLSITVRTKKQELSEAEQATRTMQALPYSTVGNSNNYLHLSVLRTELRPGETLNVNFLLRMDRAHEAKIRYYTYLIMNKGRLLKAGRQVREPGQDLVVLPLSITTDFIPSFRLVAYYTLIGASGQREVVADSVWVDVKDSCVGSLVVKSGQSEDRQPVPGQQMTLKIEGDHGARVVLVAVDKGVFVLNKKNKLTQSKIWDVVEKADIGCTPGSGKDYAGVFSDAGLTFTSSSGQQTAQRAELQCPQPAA
T2 sequence (P01024 749-1663 limits assumed, chain 2 of 2): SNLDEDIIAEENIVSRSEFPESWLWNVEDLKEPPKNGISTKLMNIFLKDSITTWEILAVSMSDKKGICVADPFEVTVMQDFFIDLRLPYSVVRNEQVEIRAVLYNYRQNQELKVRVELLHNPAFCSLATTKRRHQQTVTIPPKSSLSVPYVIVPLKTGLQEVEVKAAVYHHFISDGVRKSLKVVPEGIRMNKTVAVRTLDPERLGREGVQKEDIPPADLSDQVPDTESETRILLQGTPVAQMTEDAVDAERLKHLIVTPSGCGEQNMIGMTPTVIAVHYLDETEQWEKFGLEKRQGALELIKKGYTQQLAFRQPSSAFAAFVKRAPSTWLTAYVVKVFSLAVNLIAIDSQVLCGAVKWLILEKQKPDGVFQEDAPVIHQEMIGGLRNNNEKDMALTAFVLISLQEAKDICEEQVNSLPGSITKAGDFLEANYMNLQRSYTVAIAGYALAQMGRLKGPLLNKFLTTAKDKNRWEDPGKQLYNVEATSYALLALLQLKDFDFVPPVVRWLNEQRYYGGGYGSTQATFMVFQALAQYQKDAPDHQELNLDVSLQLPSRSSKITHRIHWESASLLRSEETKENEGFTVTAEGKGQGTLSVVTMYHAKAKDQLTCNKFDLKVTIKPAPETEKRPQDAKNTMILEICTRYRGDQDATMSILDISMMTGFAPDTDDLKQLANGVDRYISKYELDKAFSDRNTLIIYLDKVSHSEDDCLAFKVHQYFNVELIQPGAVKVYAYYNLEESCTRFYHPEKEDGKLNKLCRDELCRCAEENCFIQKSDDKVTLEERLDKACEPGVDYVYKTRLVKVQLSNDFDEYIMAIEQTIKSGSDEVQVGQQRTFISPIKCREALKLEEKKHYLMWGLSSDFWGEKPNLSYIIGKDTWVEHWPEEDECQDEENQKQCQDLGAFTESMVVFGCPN
Put plainly: size exclusion chromatography, 2-fold molar excess of EWE-hC3Nb1; SDS-PAGE of peak fractions confirmed the complex. How it is done:
as §1

In assay [3] the target is T2, C3b. Put plainly: bio-layer interferometry, summary of affinities (FIG. 10). The protocol: FIGS. 9A-9B Bio-layer interferometry-based analysis of EWEnH. (FIG. 9A) Anti-penta his biosensors were coated with EWEnH. The sensors were transferred into a dilution series from 3.125-100 nM C3b. (FIG. 9B) Anti-penta his biosensors were coated with EWEnH. The iC3b concentration tested ranged from 6.25-100 nM.
(§2) Bio-layer interferometry experiments. All experiments were performed in 20 mM HEPES pH 7.5, […]. All experiments were performed on an Octet RED96 (Fortébio Pall Corporation) instrument operating at 30° C., shaking at 1000 rpm. EWE-hC3Nb1, EWEμH or EWEnH was immobilized on anti-penta his biosensor (Fortebio Pall Corporation) and the sensors were transferred into dilution series of C3b or iC3b. Measurements of 0 nM analyte were subtracted from sensorgrams for normalization and the sensorgrams were fitted to a 1:1 binding model using the GraphPad Prism (version 6.01) software.

Assay [4] addresses T2, C3b. Put plainly: bio-layer interferometry, binder on anti-penta his biosensors; reference EWE-hC3Nb1 on C3b. The protocol: FIGS. 8A-8B Bio-layer interferometry-based analysis of EWEμH. (FIG. 8A) Anti-penta his biosensors were coated with EWEμH. The sensors were transferred into a dilution series from 1.5625-50 nM C3b. (FIG. 8B) Anti-penta his biosensors were coated with EWEμH and transferred into an iC3b dilution series ranging from 3.125-50 nM.
as §2

T1 sequence (P01024 23-667, chain 1 of 2): as the sequence (P01024 23-667 limits assumed, chain 1 of 2) above
T1 sequence (P01024 668-1663, chain 2 of 2): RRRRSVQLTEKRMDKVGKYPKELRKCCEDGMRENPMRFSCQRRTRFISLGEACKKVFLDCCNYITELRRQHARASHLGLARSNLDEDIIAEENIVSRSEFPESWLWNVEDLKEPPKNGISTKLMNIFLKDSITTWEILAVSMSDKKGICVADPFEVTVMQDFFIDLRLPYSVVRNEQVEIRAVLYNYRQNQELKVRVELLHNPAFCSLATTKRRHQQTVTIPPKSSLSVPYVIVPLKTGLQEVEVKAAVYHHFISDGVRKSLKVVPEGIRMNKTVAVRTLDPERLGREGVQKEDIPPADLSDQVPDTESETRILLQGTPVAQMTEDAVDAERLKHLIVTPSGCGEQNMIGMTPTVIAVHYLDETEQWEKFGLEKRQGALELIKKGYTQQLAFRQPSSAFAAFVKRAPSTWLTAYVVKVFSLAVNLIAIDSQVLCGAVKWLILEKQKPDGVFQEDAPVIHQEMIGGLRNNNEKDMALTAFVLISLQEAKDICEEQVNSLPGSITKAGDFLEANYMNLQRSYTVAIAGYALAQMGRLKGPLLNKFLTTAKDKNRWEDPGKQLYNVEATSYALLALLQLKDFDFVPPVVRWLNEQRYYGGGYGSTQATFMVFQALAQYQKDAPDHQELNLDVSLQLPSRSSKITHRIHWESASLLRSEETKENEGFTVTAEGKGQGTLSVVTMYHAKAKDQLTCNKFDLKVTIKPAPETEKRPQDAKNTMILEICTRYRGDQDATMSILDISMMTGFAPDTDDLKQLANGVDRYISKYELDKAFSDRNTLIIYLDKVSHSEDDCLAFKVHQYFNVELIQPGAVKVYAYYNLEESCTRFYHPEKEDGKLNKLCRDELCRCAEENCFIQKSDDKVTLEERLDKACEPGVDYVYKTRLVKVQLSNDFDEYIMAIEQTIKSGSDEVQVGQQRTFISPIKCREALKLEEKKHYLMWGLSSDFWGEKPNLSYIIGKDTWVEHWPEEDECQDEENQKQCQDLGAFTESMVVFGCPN

B1: EWE-hC3Nb1 (VHH)
VHH: QVQLVETGGGLVQAGGSLRLSCAASGSIFSINAMGWFRQAPGKEREFVATINRSGGRTYYADSVKGRFTISRDNGKNMVYLQMHSLKPEDTAIYYCAAGTGWSPQTDNEYNYWGQGTQVTVSS
notes: hC3Nb1 with an N-terminal Glu-Trp-Glu motif; expressed in E. coli; also called single domain antibody EWE-hC3Nb1; EWE-hC3Nb1 nanobody; not shown: His tag implied by HisTrap purification and capture on anti-penta his biosensors
For B1, the binding result is “no binding (tested: 2-fold molar excess of EWE-hC3Nb1)” in assay [1] and “binds” in assay [2].

B2: EWEnH (other)
chain: EWEQVQLVETGGGLVQAGGSLRLSCAASGSIFSINAMGWFRQAPGKEREFVATINRSGGRTYYADSVKGRFTISRDNGKNMVYLQMHSLKPEDTAIYYCAAGTGWSPQTDNEYNYWGQGTQVTVSSGGGGSGGGGSGGGGSGGGGSRPCGHPGDTPFGTFTLTGGNVFEYGVKAVYTCNEGYQLLGEINYRECDTDGWTNDIPICEVVKCLPVTAPENGKIVSSAMEPDREYHFGQAVRFVCNSGYKIEGDEEMHCSDDGFWSKEKPKCVEISCKSPDVINGSPISQKIIYKENERFQYKCNMGYEYSERGDAVCTESGWRPLPSCEEA
notes: expressed in HEK293 cells; also called fusion protein EWEnH; not shown: His tag implied by HisTrap purification and capture on anti-penta his biosensors
For B2, the binding result in assay [3] was “binds”.

B3: EWEµH (other)
chain: EWEQVQLVETGGGLVQAGGSLRLSCAASGSIFSINAMGWFRQAPGKEREFVATINRSGGRTYYADSVKGRFTISRDNGKNMVYLQMHSLKPEDTAIYYCAAGTGWSPQTDNEYNYWGQGTQVTVSSGGGGSGGGGSGGGGSGGGGSRPCGHPGDTPFGTFTLTGGNVFEYGVKAVYTCNEGYQLLGEINYRECDTDGWTNDIPICEVVKCLPVTAPENGKIVSSAMEPDREYHFGQAVRFVCNSGYKIEGDEEMHCSDDGFWSKEKPKCVEISCKSPDVINGSPISQKIIYKENERFQYKCNMGYEYSERGDAVCTESGWRPLPSCEEAGGGGGGGGGGGGGKCGPPPPIDNGDITSFPLSVYAPASSVEYQCQNLYQLEGNKRITCRNGQWSEPPKCLHPCVISREIMENYNIALRWTAKQKLYSRTGESVEFVCKRGYRLSSRSHTLRTTCWDGKLEYPTCAKRENLYFQG
notes: expressed in HEK293 cells; also called EWEuH; fusion EWEµH; not shown: His tag implied by HisTrap purification and capture on anti-penta his biosensors
Consider B3, for which the “fold stronger binding than EWE-hC3Nb1” value in assay [4] was approximately 10 fold.
